Measurements: patent US20250163162A1

B1: hIL10Ra_VHH14 - hIL2Rg_VHH19, No linker, tag his (bispecific antibody, not shown: small tags and cut ends)
chain: QVQLQESGGGSVQAGGSLRLSCGASGYTYSSYCMGWFRQVPGKEREGVAVIDSDGSTSYADSVKGRFTISKDNGKNTLYLQMNSLKPEDTAMYYCAADLGHYRPPCGVLYLGMDYWGKGTQVTVSSQVQLQESGGGSVQAGGSLRLSCTASGFTFDDREMNWYRQAPGNECELVSTISSDGSTYYADSVKGRFTISQDNAKNTVYLQMDSVKPEDTAVYYCAADFMIAIQAPGAGCWGQGTQVTVSS
B2: hIL10Ra_VHH14 - hIL2Rg_VHH19, linker GGGS, tag Fc (bispecific antibody, not shown: a dimerising Fc or GST)
chain: QVQLQESGGGSVQAGGSLRLSCGASGYTYSSYCMGWFRQVPGKEREGVAVIDSDGSTSYADSVKGRFTISKDNGKNTLYLQMNSLKPEDTAMYYCAADLGHYRPPCGVLYLGMDYWGKGTQVTVSSGGGSQVQLQESGGGSVQAGGSLRLSCTASGFTFDDREMNWYRQAPGNECELVSTISSDGSTYYADSVKGRFTISQDNAKNTVYLQMDSVKPEDTAVYYCAADFMIAIQAPGAGCWGQGTQVTVSS

target: T1, IL10Rα/IL2Rγ receptor (human) (UniProt Q13651); assay: cell-based or functional assay
T1 sequence (looked up) 1: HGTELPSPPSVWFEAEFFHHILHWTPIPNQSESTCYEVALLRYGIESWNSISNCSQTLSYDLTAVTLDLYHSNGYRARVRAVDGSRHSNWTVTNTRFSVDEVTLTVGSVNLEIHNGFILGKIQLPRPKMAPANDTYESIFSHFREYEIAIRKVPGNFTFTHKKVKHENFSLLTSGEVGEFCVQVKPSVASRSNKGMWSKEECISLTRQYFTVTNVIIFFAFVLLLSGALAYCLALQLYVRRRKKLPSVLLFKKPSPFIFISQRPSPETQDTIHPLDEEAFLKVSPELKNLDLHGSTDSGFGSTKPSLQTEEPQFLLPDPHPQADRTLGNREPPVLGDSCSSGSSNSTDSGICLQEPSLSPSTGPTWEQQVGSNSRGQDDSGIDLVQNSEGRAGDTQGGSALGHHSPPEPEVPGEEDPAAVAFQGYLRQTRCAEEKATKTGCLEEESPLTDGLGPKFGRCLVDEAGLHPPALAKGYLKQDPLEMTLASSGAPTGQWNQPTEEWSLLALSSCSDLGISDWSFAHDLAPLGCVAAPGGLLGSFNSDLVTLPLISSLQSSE
T1 sequence (looked up) 2: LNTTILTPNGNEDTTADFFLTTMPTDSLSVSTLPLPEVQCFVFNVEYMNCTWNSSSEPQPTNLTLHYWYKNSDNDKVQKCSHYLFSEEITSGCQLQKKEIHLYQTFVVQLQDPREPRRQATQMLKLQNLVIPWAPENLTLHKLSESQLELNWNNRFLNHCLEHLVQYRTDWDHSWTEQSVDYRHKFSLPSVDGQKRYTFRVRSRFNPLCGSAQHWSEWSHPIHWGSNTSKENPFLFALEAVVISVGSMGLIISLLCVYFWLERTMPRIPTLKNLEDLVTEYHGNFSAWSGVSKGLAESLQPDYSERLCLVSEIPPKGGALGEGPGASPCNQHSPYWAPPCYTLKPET

Binder	Granzyme A secretion, CD8 T cells, at 0 µM [pg/mL]	Granzyme A secretion, CD8 T cells, at 0.0001 µM [pg/mL]	Granzyme A secretion, CD8 T cells, at 0.001 µM [pg/mL]	Granzyme A secretion, CD8 T cells, at 0.01 µM [pg/mL]	Granzyme A secretion, CD8 T cells, at 0.1 µM [pg/mL]	Granzyme A secretion, CD8 T cells, at 1 µM [pg/mL]	Granzyme A secretion, CD8 T cells, at 10 µM [pg/mL]	Granzyme A secretion, CD8 T cells, at 100 µM [pg/mL]	Granzyme B secretion, CD8 T cells, at 0 µM [pg/mL]	Granzyme B secretion, CD8 T cells, at 0.0001 µM [pg/mL]
B1	25200	19700	22300	22200	22900	24400	26000	27500	77700	49300
B2	25200	22100	25900	27600	30000	29800	28500	25700	77700	54500

same assay, conditions: not given

Binder	Granzyme B secretion, CD8 T cells, at 0.001 µM [pg/mL]	Granzyme B secretion, CD8 T cells, at 0.01 µM [pg/mL]	Granzyme B secretion, CD8 T cells, at 0.1 µM [pg/mL]	Granzyme B secretion, CD8 T cells, at 1 µM [pg/mL]	Granzyme B secretion, CD8 T cells, at 10 µM [pg/mL]	Granzyme B secretion, CD8 T cells, at 100 µM [pg/mL]	IFNγ secretion, CD8 T cells, at 0 µM [pg/mL]	IFNγ secretion, CD8 T cells, at 0.0001 µM [pg/mL]	IFNγ secretion, CD8 T cells, at 0.001 µM [pg/mL]	IFNγ secretion, CD8 T cells, at 0.01 µM [pg/mL]
B1	47300	44200	54800	56300	67100	74300	122000	102000	104000	111000
B2	60900	79000	108000	134000	151000	93300	122000	104000	113000	131000

same assay, conditions: not given

Binder	IFNγ secretion, CD8 T cells, at 0.1 µM [pg/mL]	IFNγ secretion, CD8 T cells, at 1 µM [pg/mL]	IFNγ secretion, CD8 T cells, at 10 µM [pg/mL]	IFNγ secretion, CD8 T cells, at 100 µM [pg/mL]	IL-1β secretion, LPS treated monocytes, at 0 µM [pg/mL]	IL-1β secretion, LPS treated monocytes, at 0 µM (LPS only) [pg/mL]	IL-1β secretion, LPS treated monocytes, at 0.0001 µM [pg/mL]	IL-1β secretion, LPS treated monocytes, at 0.001 µM [pg/mL]	IL-1β secretion, LPS treated monocytes, at 0.01 µM [pg/mL]	IL-1β secretion, LPS treated monocytes, at 0.1 µM [pg/mL]
B1	111000	123000	131000	134000	6240	6880	5540	5550	5370	5290
B2	144000	166000	157000	148000	6240	6880	6290	5570	5260	4020

same assay, conditions: not given

Binder	IL-1β secretion, LPS treated monocytes, at 1 µM [pg/mL]	IL-1β secretion, LPS treated monocytes, at 10 µM [pg/mL]	IL-1β secretion, LPS treated monocytes, at 100 µM [pg/mL]	IL-9 secretion, CD8 T cells, at 0 µM [pg/mL]	IL-9 secretion, CD8 T cells, at 0.0001 µM [pg/mL]	IL-9 secretion, CD8 T cells, at 0.001 µM [pg/mL]	IL-9 secretion, CD8 T cells, at 0.01 µM [pg/mL]	IL-9 secretion, CD8 T cells, at 0.1 µM [pg/mL]	IL-9 secretion, CD8 T cells, at 1 µM [pg/mL]	IL-9 secretion, CD8 T cells, at 10 µM [pg/mL]
B1	5800	5790	7100	1350	933	1120	1140	1070	1220	1440
B2	3660	4140	6480	1350	1060	1120	1160	1420	1780	2150

same assay, conditions: not given

Binder	IL-9 secretion, CD8 T cells, at 100 µM [pg/mL]
B1	1670
B2	1930
